Target: ACE2 protein (recombinant human, CUSABIO no. CSB-MP866317HU) (human, UniProt Q9BYF1 18-740)
Test: SPR; […] (50 ug/mL in sodium acetate pH 4.0, 10 uL/min, 420 s); […]; Biacore T200; […]
Details: both partners purified

Sequence of ACE2 protein (recombinant human, CUSABIO no. CSB-MP866317HU) (Q9BYF1 18-740): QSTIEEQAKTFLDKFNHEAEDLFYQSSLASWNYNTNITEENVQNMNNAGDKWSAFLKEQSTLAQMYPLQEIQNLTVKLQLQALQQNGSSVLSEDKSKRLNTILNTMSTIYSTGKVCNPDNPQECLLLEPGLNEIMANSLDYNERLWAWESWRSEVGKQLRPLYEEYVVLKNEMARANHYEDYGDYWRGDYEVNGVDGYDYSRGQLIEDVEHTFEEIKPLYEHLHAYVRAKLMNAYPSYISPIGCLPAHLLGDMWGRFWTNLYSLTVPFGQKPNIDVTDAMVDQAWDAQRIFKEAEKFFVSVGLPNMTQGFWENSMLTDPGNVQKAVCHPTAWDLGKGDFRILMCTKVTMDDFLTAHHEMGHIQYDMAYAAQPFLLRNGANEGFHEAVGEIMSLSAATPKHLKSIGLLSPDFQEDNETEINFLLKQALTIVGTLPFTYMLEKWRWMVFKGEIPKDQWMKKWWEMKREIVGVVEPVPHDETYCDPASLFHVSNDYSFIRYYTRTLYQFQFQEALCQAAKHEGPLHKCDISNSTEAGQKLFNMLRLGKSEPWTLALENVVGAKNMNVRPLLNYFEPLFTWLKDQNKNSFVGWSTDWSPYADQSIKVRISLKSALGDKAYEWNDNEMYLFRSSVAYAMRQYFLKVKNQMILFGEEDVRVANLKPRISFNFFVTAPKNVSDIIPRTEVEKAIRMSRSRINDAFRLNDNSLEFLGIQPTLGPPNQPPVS

B1: KKCH peptide (peptide)
peptide: KKCHFWPFPW
Binder B1 has a Kd of 624 nM, a koff of 0.0958 s⁻¹ and a kon of 154000 M⁻¹ s⁻¹.

From publication PMC11277083 (International Journal of Molecular Sciences, 2024)
